Source: patent US20230106715A1 (BIOSION, published 2023)

Assays:
[1] = biological target: T1, cynomolgus monkey Siglec15-his protein (cynomolgus monkey); test: indirect ELISA on coated cynomolgus Siglec15-his
T1 construct: In house made; also called Cynomolgus Siglec15-his; cynomolgus Siglec15
T1 chain: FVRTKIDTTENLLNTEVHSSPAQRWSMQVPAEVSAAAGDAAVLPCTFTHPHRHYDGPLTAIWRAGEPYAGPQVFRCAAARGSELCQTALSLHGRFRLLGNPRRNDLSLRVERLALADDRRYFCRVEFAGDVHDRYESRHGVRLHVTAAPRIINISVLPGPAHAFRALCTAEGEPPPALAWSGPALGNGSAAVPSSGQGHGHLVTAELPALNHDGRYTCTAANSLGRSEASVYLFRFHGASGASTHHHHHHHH
Experimental: The anti-Siglec15 antibodies' cross-reactions to cynomolgus or mouse Siglec15 proteins were measured. Briefly, 96-well micro plates were coated with 100 μl of 2 μg/ml cynomolgus Siglec15-his protein (in house made with SEQ ID NO: 21), or 2 μg/ml mouse Siglec15-his protein (in house made with SEQ ID NO: 22) in carbonate/bicarbonate buffer (pH 9.6) for 2 hours at 37° C. ELISA plates were washed once with wash buffer (PBS+0.05% v/v Tween-20, PBST) and then blocked with 200 μl/well blocking buffer (5% w/v non-fatty milk in PBST) overnight at 4° C. Plates were washed 4 times and incubated with 100 μl serially diluted anti-Siglec15 antibodies of the disclosure or controls (starting at 66.7 nM, 5-fold serial dilution in PBST with 2.5% w/v non-fatty milk) for 40 minutes at 37° C. ELISA plates were washed 4 times again and incubated with Peroxidase AffiniPure Goat Anti-Human IgG, F(ab)₂ fragment specific (1:5000 dilution in PBST buffer, Jackson Immunoresearch, Cat #109-035-097, 100 μl/well) for 40 minutes at 37° C. After a final wash, plates were incubated with 100 μl/well TMB (Innoreagents, Cat #TMB-S-002). The reaction was stopped 4 minutes later at room temperature with 50 μl 1M H₂SO₄, and the absorbance of each well was read on a microplate reader using dual wavelength mode with 450 nm for TMB and 630 nm as the reference wavelength, then the OD (450-630) values were plotted against antibody concentration. Data was analyzed using Graphpad Prism software and EC₅₀ values were reported.

[2] = biological target: T2, human Siglec15-mouse Fc protein (human); test: cell based blocking FACS: human Siglec15-mouse Fc in solution, blocked ligand human LRRC4C on LRRC4C-3F12-1B9 cells
T2 construct: In house made
T2 chain: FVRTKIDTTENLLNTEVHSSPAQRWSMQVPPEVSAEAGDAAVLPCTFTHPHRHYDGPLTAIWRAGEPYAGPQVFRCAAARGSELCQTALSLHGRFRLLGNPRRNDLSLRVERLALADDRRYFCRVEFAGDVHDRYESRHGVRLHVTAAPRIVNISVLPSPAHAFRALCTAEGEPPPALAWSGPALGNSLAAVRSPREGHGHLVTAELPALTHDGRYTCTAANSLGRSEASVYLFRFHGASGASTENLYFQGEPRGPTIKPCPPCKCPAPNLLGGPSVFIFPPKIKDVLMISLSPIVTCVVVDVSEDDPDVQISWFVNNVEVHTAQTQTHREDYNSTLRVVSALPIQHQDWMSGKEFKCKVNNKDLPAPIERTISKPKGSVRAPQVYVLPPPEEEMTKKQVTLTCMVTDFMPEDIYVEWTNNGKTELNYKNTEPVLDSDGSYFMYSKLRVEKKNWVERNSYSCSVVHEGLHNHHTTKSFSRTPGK
Experimental: The activities of the anti-Siglec15 antibodies to block binding of Siglec15 protein to cell surface LRRC4C were evaluated by Flow Cytometry (FACS), using in house made LRRC4C-3F12-1B9 cells. Briefly, HEK-293 cells (ATCC #CRL-1573) were transfected with pCMV-T-P plasmid constructs with the nucleotide sequence encoding human LRRC4C (amino acid residues Met1-Ile640 of uniprot #Q9HCJ2) inserted between EcoRI and XbaI, following the instruction of lipofectamine 3000 transfection reagent (Thermo Fisher). A stable cell named LRRC4C-3F12-1B9 was chosen for subsequent cell based ligand-blocking assay.
Briefly, the anti-Siglec15 antibodies of the disclosure or controls were diluted with human Siglec15-mouse Fc protein (prepared in-house with SEQ ID NO: 26, 8 μg/ml […] in FACS buffer), starting at 66.67 nM with a 5-fold serial dilution, and incubated at room temperature for 40 minutes. Then, LRRC4C-3F12-1B9 cells were harvested from cell culture flasks, washed twice and re-suspended in PBS containing 2% v/v Fetal Bovine Serum (FACS buffer). Then, 1×10⁵ cells per well in 96 well-plates were incubated in 100 μL of the antibody/Siglec15-mouse Fc mixtures for 40 minutes at 4° C. […] Cells were washed twice and re-suspended in FACS buffer. Fluorescence was measured using a Becton Dickinson FACS Canto II-HTS equipment. Data was analyzed using Graphpad Prism software and IC₅₀ values were reported.

[3] = biological target: T1, cynomolgus monkey Siglec15-his protein; test: SPR Biacore T200, antibody captured by anti-human IgG, antigen as analyte, 1:1 fit
Experimental: Briefly, goat anti-human IgG (GE healthcare, Cat #BR100839, Human Antibody Capture Kit) was covalently linked to a CM5 chip (carboxy methyl dextran coated chip, GE healthcare, Cat #BR-1005-30) via primary amines, using a standard amine coupling kit provided by Biacore (GE healthcare, Pittsburgh, Pa., USA). Un-reacted moieties on the biosensor surface were blocked with ethanolamine. Then, purified anti-Siglec15 antibodies of the disclosure at the concentration of 13.3 nM and an anti-Siglec15 benchmark (ch5G12, also referred to as BM, see U.S. Patent Publication No. 20190202912A1, amino acid sequences of the heavy chain and light chain set forth in SEQ ID NOs: 24 and 25, respectively) at 13.3 nM, were respectively flowed onto the chip at a flow rate of 10 μL/min. Then, serially diluted recombinant human Siglec15-his protein (in house made, amino acid sequence set forth in SEQ ID NO: 20) or cynomolgus monkey Siglec15-his protein (in house made, amino acid sequence set forth in SEQ ID NO: 21), 2-fold serial dilution in HBS-EP⁺ buffer starting at 80 nM, were respectively flown onto the chip at a flow rate of 30 μL/min. The antigen-antibody association kinetics was followed for 2 minutes and the dissociation kinetics was followed for 10 minutes. The association and dissociation curves were fit to a 1:1 Langmuir binding model using BIAcore evaluation software.

B1: A2A5C7E8 (antibody, V domains shown)
VH: EVQLVQSGAEVKKPGESLRISCKGSGYSFTTYWISWVRQMPGKGLEWMGLIDPSDSYTNYSPSFQGHVTISTDKSISTAYLQWSSLKASDTAMYYCARGGYYGSEEDYWGQGTLVTVSS
VL: EIVLTQSPGTLSLSPGERATLSCRASQSVSSSRLAWFQQKSGQAPRLLIFDASSRATGIPDRFSGSGSGTDFTLTISRLEPEDFAVYYCQQYGSSPRTFGQGTKVEFK
notes: Fully human antibody from transgenic mouse hybridoma; also called A2A5C7E8-1
EC50 [1]: 0.521 nM | IC50 [2]: 2.07 nM | Kd [3]: 0.0704 nM | koff [3]: 7.96e-05 s⁻¹ | kon [3]: 1.13e+06 M⁻¹ s⁻¹

B2: A2A5C7E8-2 (antibody, human IgG1, kappa, V domains shown)
VH: EVQLVQSGAEVKKPGESLRISCKGSGYSFTTYWISWVRQMPGKGLEWMGLIDPSESYTNYSPSFQGHVTISTDKSISTAYLQWSSLKASDTAMYYCARGGYYGSEEDYWGQGTLVTVSS
VL: EIVLTQSPGTLSLSPGERATLSCRASQSVSSSRLAWFQQKSGQAPRLLIFDASSRATGIPDRFSGSGSGTDFTLTISRLEPEDFAVYYCQQYGSSPRTFGQGTKVEFKR
notes: Variant of A2A5C7E8 modified in VH CDR2 (X1 = E)
Kd [3]: 0.147 nM | koff [3]: 0.000167 s⁻¹ | kon [3]: 1.14e+06 M⁻¹ s⁻¹

B3: A2A5C7E8-3 (antibody, human IgG1, kappa, V domains shown)
VH: EVQLVQSGAEVKKPGESLRISCKGSGYSFTTYWISWVRQMPGKGLEWMGLIDPSDSYTNYSPSFKGHVTISTDKSISTAYLQWSSLKASDTAMYYCARGGYYGSEEDYWGQGTLVTVSS
VL: EIVLTQSPGTLSLSPGERATLSCRASQSVSSSRLAWFQQKSGQAPRLLIFDASSRATGIPDRFSGSGSGTDFTLTISRLEPEDFAVYYCQQYGSSPRTFGQGTKVEFKR
notes: Variant of A2A5C7E8 modified in VH CDR2 (X2 = K)
Kd [3]: 0.0751 nM | koff [3]: 5.32e-05 s⁻¹ | kon [3]: 708000 M⁻¹ s⁻¹

B4: A1E10G7H9 (antibody, V domains shown)
VH: QVQLQESGPGLVKPSGTLSLTCAVSGGSISSSNWWHWVRQPPGKGLEWIGEIYHSGNTNYKPSLKSRVTISVDKSKNQFSLKLSSVTAADTAVYYCARDEGNGWSNAFDIWGQGTMVTVSS
VL: ENVLTQSPGTLSLSPGERVTLSCRASQSVSSSYLAWYQQKPGQAPRFLIYGASGGATGIPDRFSGSGSGTDFTLTISRLEPEDFAVYYCQQYGSSPITFGQGTRLEIK
notes: Fully human antibody from transgenic mouse hybridoma
EC50 [1]: 0.509 nM | IC50 [2]: 3.78 nM

B5: anti-Siglec15 benchmark (ch5G12) (antibody, human IgG1, kappa, V domains shown)
VH: QVQLQQPGAELVKPGASVKMSCKASGYTFTSYWITWVIQRPGQGLEWIGDIYCGSDTMHYNEKFKNKATLTVDTSSSTAYMQLSSLTSEDSAVYYCARWWDYGSSYDYFDYWGQGTTLTVSS
VL: DIKMTQSPSSMYASLGERVTITCKASQDINSYLSWFQQKPGKSPKTLIYRANRLVDGVPSRFSGSGSGQDYSLTISSLEYEDMGIYYCLQYDEFPYTFGGGTKLEIKR
notes: ch5G12 (US 20190202912A1); also called BM; Siglec15-ch5G9
EC50 [1]: 0.652 nM | IC50 [2]: 0.586 nM | Kd [3]: 0.688 nM | koff [3]: 0.000781 s⁻¹ | kon [3]: 1.13e+06 M⁻¹ s⁻¹
